{"source": "paper PMC3396432", "target": "Cav1(62-178) P132L (UniProt Q03135)", "assay": "AUC", "data": [{"substance": "Cav1(62-178) P132L (from UniProt Q03135 62-178) (domain or fragment)", "values": [{"measurement": "Kd", "value": "< 15", "unit": "nM"}, {"measurement": "stoichiometry N", "value": 2}]}]}
